T1: EsCas13d, nuclease-dead (Eubacterium siraeum, UniProt B0MS50, R295A;H300A;R849A;H854A)
T1 sequence: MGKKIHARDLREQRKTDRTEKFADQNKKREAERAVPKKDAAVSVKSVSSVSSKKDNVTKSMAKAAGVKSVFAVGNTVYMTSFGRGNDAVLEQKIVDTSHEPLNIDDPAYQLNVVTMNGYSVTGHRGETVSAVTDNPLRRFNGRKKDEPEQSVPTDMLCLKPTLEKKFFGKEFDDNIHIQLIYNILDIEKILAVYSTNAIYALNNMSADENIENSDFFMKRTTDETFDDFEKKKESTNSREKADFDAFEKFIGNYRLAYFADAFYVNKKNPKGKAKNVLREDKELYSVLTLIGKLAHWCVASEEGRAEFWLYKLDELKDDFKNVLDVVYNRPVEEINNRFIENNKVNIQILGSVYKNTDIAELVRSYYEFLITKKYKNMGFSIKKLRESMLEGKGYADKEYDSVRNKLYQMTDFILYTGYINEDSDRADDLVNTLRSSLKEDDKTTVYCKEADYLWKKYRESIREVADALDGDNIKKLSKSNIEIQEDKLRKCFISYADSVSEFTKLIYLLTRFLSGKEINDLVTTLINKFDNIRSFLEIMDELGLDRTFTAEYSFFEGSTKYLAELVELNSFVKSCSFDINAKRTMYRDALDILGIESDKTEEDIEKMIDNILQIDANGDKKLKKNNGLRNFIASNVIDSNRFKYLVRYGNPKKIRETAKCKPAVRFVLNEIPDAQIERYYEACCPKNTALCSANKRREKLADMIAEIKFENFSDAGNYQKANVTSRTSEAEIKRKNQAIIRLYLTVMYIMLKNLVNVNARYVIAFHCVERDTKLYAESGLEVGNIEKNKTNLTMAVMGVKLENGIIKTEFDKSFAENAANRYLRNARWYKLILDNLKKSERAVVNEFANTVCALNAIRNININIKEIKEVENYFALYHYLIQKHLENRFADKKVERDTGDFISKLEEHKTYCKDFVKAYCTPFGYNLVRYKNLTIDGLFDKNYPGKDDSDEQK

B1: target 3 C1A,U7C (mixed)
RNA 1: CACCCGUGCAAAAUUGCAGGGGUCUAAAACGACCUGAAUAUUUCAGAUCAAA
RNA 2: GGGAAUGGAUCCACAUCUACGAAUUCGUUUUUGAUCUGAAAUAUCCAGGUAUGCAGAUCGGAAGAGCACACGU
B2: target 3 U2G,U22C (mixed)
RNA 1: B1 RNA 1
RNA 2: B1 RNA 2 with U30C, C45U, U50G, A51C
B3: target 3 insC 3' of 13,insA 3' of 2 (mixed)
RNA 1: B1 RNA 1
RNA 2: GGGAAUGGAUCCACAUCUACGAAUUCGUUUUUGAUCUGACAAUAUUCAGGUACUGCAGAUCGGAAGAGCACACGU
B4: target 3 insU 3' of 22,insC 3' of 22 (mixed)
RNA 1: B1 RNA 1
RNA 2: GGGAAUGGAUCCACAUCUACGAAUUCGUUUUCUUGAUCUGAAAUAUUCAGGUCUGCAGAUCGGAAGAGCACACGU
B5: target 3 insC 3' of 15,insC 3' of 11 (mixed)
RNA 1: B1 RNA 1
RNA 2: B4 RNA 2 with C32U, U33G, U34A, G35U, A36C, U39G, G40A, A43C
B6: target 3 U2C,U8G (mixed)
RNA 1: B1 RNA 1
RNA 2: B1 RNA 2 with U44G, C45U, U50C, A51C
B7: target 3 insG 3' of 2,insG 3' of 2 (mixed)
RNA 1: B1 RNA 1
RNA 2: GGGAAUGGAUCCACAUCUACGAAUUCGUUUUUGAUCUGAAAUAUUCAGGUGGCUGCAGAUCGGAAGAGCACACGU
B8: target 3 U7C (mixed)
RNA 1: B1 RNA 1
RNA 2: B1 RNA 2 with A51C
B9: target 3 U2G,U20C (mixed)
RNA 1: B1 RNA 1
RNA 2: B1 RNA 2 with U32C, C45U, U50G, A51C
B10: target 3 insG 3' of 8,insG 3' of 6 (mixed)
RNA 1: B1 RNA 1
RNA 2: B7 RNA 2 with U45G, C46U, A47C, G49A, U50G, G52U
B11: target 3 del6 (mixed)
RNA 1: B1 RNA 1
RNA 2: GGGAAUGGAUCCACAUCUACGAAUUCGUUUUUGAUCUGAAAUAUUAGGUCUGCAGAUCGGAAGAGCACACGU
B12: target 3 insA 3' of 21,insC 3' of 3 (mixed)
RNA 1: B1 RNA 1
RNA 2: GGGAAUGGAUCCACAUCUACGAAUUCGUUUUAUGAUCUGAAAUAUUCAGGCUCUGCAGAUCGGAAGAGCACACGU
B13: target 3 C6G,U7A (mixed)
RNA 1: B1 RNA 1
RNA 2: B1 RNA 2 with C45A, C46G, A51C
B14: target 3 C1G,A5U (mixed)
RNA 1: B1 RNA 1
RNA 2: B1 RNA 2 with C45U, A47U, A51G
B15: target 3 C1U,G3A (mixed)
RNA 1: B1 RNA 1
RNA 2: B1 RNA 2 with C45U, G49A, A51U
B16: target 3 insU 3' of 16,insG 3' of 2 (mixed)
RNA 1: B1 RNA 1
RNA 2: B3 RNA 2 with G38U, A39G, C40A, A52G
B17: target 3 insU 3' of 9,insG 3' of 7 (mixed)
RNA 1: B1 RNA 1
RNA 2: B7 RNA 2 with C46U, A47G, G48C, G49A, U50G, G52U
B18: target 3 insC 3' of 9,insC 3' of 3 (mixed)
RNA 1: B1 RNA 1
RNA 2: B3 RNA 2 with C40A, A42U, U43A, A44C, U51C, A52U
B19: target 3 insG 3' of 5,insA 3' of 2 (mixed)
RNA 1: B1 RNA 1
RNA 2: B7 RNA 2 with U50G, G51U, G52A
B20: target 3 insU 3' of 5,insA 3' of 4 (mixed)
RNA 1: B1 RNA 1
RNA 2: B7 RNA 2 with G48U, U50A, G52U
B21: target 3 C16U,U22A (mixed)
RNA 1: B1 RNA 1
RNA 2: B1 RNA 2 with U30A, C36U, C45U, A51C
B22: target 3 insA 3' of 15,insU 3' of 3 (mixed)
RNA 1: B1 RNA 1
RNA 2: B3 RNA 2 with G38A, A39G, C40A, A52U
B23: target 3 insC 3' of 9,insU 3' of 5 (mixed)
RNA 1: B1 RNA 1
RNA 2: B7 RNA 2 with U44C, C46U, A47C, G48A, G49U, U50G, G52U
B24: target 3 insC 3' of 7,insA 3' of 3 (mixed)
RNA 1: B1 RNA 1
RNA 2: B7 RNA 2 with A47C, G48A, U50G, G51A, G52U
B25: target 1 U3A,U11C (mixed)
RNA 1: CACCCGUGCAAAAAUGCAGGGGUCUAAAACUGAGCGGAUAACCUCUCUAUGG
RNA 2: GGGAAUGGAUCCACAUCUACGAAUUCGUACCAUAGAGAGGCUAUCCGCACACCGAGAUCGGAAGAGCACACGU
B26: target 1 insG 3' of 10,insG 3' of 10 (mixed)
RNA 1: B25 RNA 1
RNA 2: GGGAAUGGAUCCACAUCUACGAAUUCGUACCAUAGAGAGGUUGGAUCCGCUCACCGAGAUCGGAAGAGCACACGU
B27: target 1 G12U,A18U (mixed)
RNA 1: B25 RNA 1
RNA 2: B25 RNA 2 with A34U, G40U, C41U, A49U
B28: target 1 G15U,G17A (mixed)
RNA 1: B25 RNA 1
RNA 2: B25 RNA 2 with G35A, G37U, C41U, A49U

Changes are numbered by the printed parent chain. Names and notes keep the numbering of the source.

The data set has as its target T1, EsCas13d, nuclease-dead. The experiment in a line: crRNA (strand 1, pre-loaded); Mg2+; 40 mM Tris-HCl pH 7.5, 150 mM NaCl, 6 mM MgCl2, 1 mM DTT, 0.1% Tween-20, 0.2 mg/ml BSA; 25 C; 10 min per concentration, then washed. The note with it: tags: His6-TwinStrep-SUMO cleaved; N-terminal SNAP kept (SNAP-Surface 488); label: 3' end held by stalled T7 RNA polymerase.
B1 had a Kd of 100 ± 40 nM.
As for B2, the equilibrium dissociation constant (Kd) stood at 19.8 ± 3.55 nM.
The figure for B3 is 70 ± 13 nM.
Then B4, with 39.5 ± 6 nM.
In turn, B5 had a Kd of 46 ± 4 nM.
Then B6, with 95.5 ± 20.5 nM; and B7, with 22 ± 2.05 nM; and B8, with 56 ± 7 nM.
The figure for B9 is 50 ± 19 nM; for B10 it is 31.6 ± 2.7 nM.
The figure for B11 is 38.4 ± 3.55 nM; for B12 it is 35 ± 5 nM; for B13 it is 48.5 ± 5.5 nM.
In turn, B14 yielded a Kd of 10.1 ± 1.55 nM.
Then B15, with 45 ± 10.5 nM.
The figure for B16 is 16.1 ± 1.9 nM; for B17 it is 84.5 ± 18.5 nM; for B18 it is 88 ± 24.5 nM.
The figure for B19 is 39 ± 6 nM.
In turn, B20 gave a Kd of 9.9 ± 1.8 nM.
The figure for B21 is 70 ± 11 nM; for B22 it is 59.5 ± 12.5 nM; for B23 it is 76.5 ± 12.5 nM.
Then B24, with 68 ± 14 nM; and B25, with 10.3 ± 1.2 nM; and B26, with 21.8 ± 2.2 nM.
Then B27, with 44 ± 10 nM; and B28, with 53 ± 5 nM.

The record behind these values is PMC10786891, “Massively parallel profiling of RNA-targeting CRISPR-Cas13d”.
